From patent publication US20170298124A1, “ANTIBODIES AGAINST PATHOLOGICAL FORMS OF TDP-43 AND USES THEREOF” (Academia Sinica, published 2017)

B1: TAR DNA A-site (ssDNA)
DNA: CTTTTTGCCTGT
B2: TAR DNA B-site (ssDNA)
DNA: TGGGTCTCTCTG

Key:
[1] = molecular target: TDP-43 full-length (oligomers) (Homo sapiens, UniProt Q13148 Q13148:1-414); test: intrinsic fluorescence titration (ex 280, em 350 nm), 1.5 uM protein, 30 mM Tris-HCl pH 8; residual binding may come from minor monomer population; settings: chain copies: oligomer (stated); 1:1 stoichiometry of TDP-43 and ssDNA from fit
[2] = molecular target: TDP-43s short-form TDP-43 (RRM1-RRM2) (Mus musculus, UniProt Q921F2 Q921F2:101-265); test: intrinsic fluorescence titration (ex 280, em 350 nm), 1.5 uM protein, 30 mM Tris-HCl pH 8; settings: tags: prepared per Kuo et al 2009

Chain of TDP-43 full-length (oligomers) (Q13148 whole entry, one chain of several): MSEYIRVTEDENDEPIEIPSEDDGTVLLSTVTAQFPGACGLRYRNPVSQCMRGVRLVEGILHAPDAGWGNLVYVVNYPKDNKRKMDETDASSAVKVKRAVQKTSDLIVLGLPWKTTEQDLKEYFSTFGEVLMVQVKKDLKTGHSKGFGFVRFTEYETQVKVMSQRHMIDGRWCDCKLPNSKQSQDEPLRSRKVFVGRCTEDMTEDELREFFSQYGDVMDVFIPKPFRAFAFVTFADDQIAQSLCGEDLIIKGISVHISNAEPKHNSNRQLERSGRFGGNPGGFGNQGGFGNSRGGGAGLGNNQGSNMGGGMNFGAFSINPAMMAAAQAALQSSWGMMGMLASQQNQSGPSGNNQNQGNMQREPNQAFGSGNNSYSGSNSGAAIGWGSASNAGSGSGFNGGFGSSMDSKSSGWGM

| Binder | Kd [1] | Kd [2] |
| --- | --- | --- |
| B1 | 7.05 µM | 0.2 µM |
| B2 | 6.27 µM | 0.38 µM |
